{
  "source": "patent US9926375B2",
  "about": "“Anti-endoglin antibodies and uses thereof” (Tracon Pharmaceuticals, Inc., priority 2014, dated 2018)",
  "molecules": {"B1": {"name": "M1043: rat IgG1 antibody that binds mouse endoglin and competitively inhibits mouse BMP binding; VH SEQ ID NO: 124, VL SEQ ID NO: 125 (antibody, V domains shown)", "VH": "QVQLQQSGAELVKPGSSVKISCKASGYTFTSYDMHWIKQQPGNGLEWIGWIYPGNGNTKYNQKFNGKATLTADKSSSTAYMQLSSLTSEDSAVYFCARGKFGVGDYWGQGVMVTVSS", "VL": "DTVLTQSPALAVSPGERVSISCRASEGVNSYMHWYQQKPGQQPKLLIYIASNLASGVPARFSGSGSGTDFTLTIDPVEADDTATYFCQQSWNDPYTFGAGTKLELKR"}},
  "key": {"[1]": {"tested_on": "BLM-induced pulmonary fibrosis model mice", "experiment": "Bleomycin-induced pulmonary fibrosis model", "type": "in vivo, mouse", "details": "vs isotype-control antibody group (isotype-control vs disease control group); day 21; Bonferroni, P<0.05", "method": "Pathogen-free 7 weeks old female C57BL/6J mice were obtained from Japan SLC, Inc. (Japan). At day 0, 60 mice were induced to develop pulmonary fibrosis by a single intratracheal administration of bleomycin sulphate (BLM, Nippon Kayaku, Japan) in saline at a dose of 3 mg/kg, in a volume of 50 μL per animal using Microsprayer® (Penn-Century, USA).\nBLM-induced pulmonary fibrosis model mice were randomized into 4 groups of 12 mice based on the body weight on the day before the start of treatment.\nGroup 3 (M1043 Antibody): Twelve BLM-induced pulmonary fibrosis model mice were intravenously administered vehicle supplemented with M1043 at a dose of 10 mg/kg twice weekly at day 7, 10, 14 and 17.\nGroup 4 (TRC105 human/mouse chimeric antibody): Twelve BLM-induced pulmonary fibrosis model mice were intravenously administered vehicle supplemented with TRC105 at a dose of 10 mg/kg twice weekly at day 7, 10, 14 and 17.\nGroup 5 (BIBF1120 inhibitor for Idiopathic Pulmonary Fibrosis—positive control, Boehringer Ingelheim): Twelve BLM-induced pulmonary fibrosis model mice were orally administered 1% CMC supplemented with BIBF1120 at a dose of 100 mg/kg once daily from day 7 to 21. […]\nHistological analysis of lung sections was conducted by practitioners who are not aware of the Group identity. Masson's Trichrome staining is conducted and an Ashcroft Score estimate was determined. […]"}, "NASH mice": {"tested_on": "NASH mice", "experiment": "Murine model of non-alcoholic steatohepatitis (NASH; STZ and high fat diet)", "type": "in vivo, mouse", "how_it_was_run": "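NASH induced in mice by single postnatal subcutaneous STZ plus high-fat diet from 4 weeks of age; groups of 10 dosed from day 63 with antibodies i.v. at 10 mg/kg twice weekly or telmisartan orally 10 mg/kg daily to day 84. At 12 weeks, H&E liver sections scored for NAFLD Activity Score (0–8); Bonferroni test, P<0.05.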"}, "[2]": {"details": "liver gene expression, mean ± SD, Normal-Vehicle 1.0"}},
  "note": "Entries after “also recorded” stand apart in the source; their conditions may differ.",
  "data": [
    {"molecule": "B1", "values": [
      {"measurement": "Ashcroft score, comparison between groups", "setting": "[1]", "value": "no significant difference"},
      {"measurement": "Liver triglyceride contents compared with the NASH-Vehicle group", "setting": "NASH mice; Bonferroni, P<0.05", "value": "significant decreases"},
      {"measurement": "Mean liver weight compared with the NASH-Vehicle group", "setting": "NASH mice; Bonferroni, P<0.05", "value": "tended to decrease"},
      {"measurement": "Mean liver-to-body weight ratio compared with the NASH-Vehicle group", "setting": "NASH mice; Bonferroni, P<0.05", "value": "significant decreases"},
      {"measurement": "NAS compared with the NASH-Vehicle group", "setting": "NASH mice; Bonferroni, P<0.05", "value": "significant decreases in NAS; also recorded: significant reductions of NAS"},
      {"measurement": "Serum alanine aminotransferase (ALT) levels compared with the NASH-Vehicle group", "setting": "NASH mice; Bonferroni, P<0.05", "value": "tended to decrease"},
      {"measurement": "Serum aspartate aminotransferase (AST) levels compared with the NASH-Vehicle group", "setting": "NASH mice; Bonferroni, P<0.05", "value": "tended to decrease"},
      {"measurement": "F4/80-positive signals and cells in liver compared with the NASH-Vehicle group", "setting": "NASH mice; F4/80 immunostaining, macrophage marker", "value": "Lower F4/80-positive signals and positive cells"},
      {"measurement": "Alpha-SMA mRNA expression", "setting": "NASH mice; [2]", "value": "1.7 ± 0.4"},
      {"measurement": "MCP-1 mRNA expression", "setting": "NASH mice; [2]", "value": "3.2 ± 2.4"},
      {"measurement": "TIMP-1 mRNA expression", "setting": "NASH mice; [2]", "value": "7.6 ± 3.3"},
      {"measurement": "TNF-α mRNA expression", "setting": "NASH mice; [2]", "value": "4.4 ± 1.9"},
      {"measurement": "Liver triglyceride", "setting": "NASH mice; mean ± SD", "value": "22.4 ± 5.4", "unit": "mg/g liver"},
      {"measurement": "Serum ALP", "setting": "NASH mice; mean ± SD", "value": "358 ± 129", "unit": "U/L"},
      {"measurement": "Serum ALT", "setting": "NASH mice; mean ± SD", "value": "24 ± 4", "unit": "U/L"},
      {"measurement": "Serum AST", "setting": "NASH mice; mean ± SD", "value": "76 ± 24", "unit": "U/L"},
      {"measurement": "Sirius red-positive area", "setting": "NASH mice; mean ± SD, liver sections", "value": "0.86 ± 0.30", "unit": "%"},
      {"measurement": "NAS (NAFLD Activity score)", "setting": "NASH mice; mean ± SD, range 0-8, 10 mg/kg", "value": "4.1 ± 1.0"},
      {"measurement": "Lobular inflammation score 0, number of mice", "setting": "NASH mice; score 0 = No Foci", "value": 1},
      {"measurement": "Hepatocyte ballooning score 0, number of mice", "setting": "NASH mice; score 0 = None", "value": 2},
      {"measurement": "Steatosis score 1, number of mice", "setting": "NASH mice; score 1 = 5-33%", "value": 6},
      {"measurement": "Lobular inflammation score 1, number of mice", "setting": "NASH mice; score 1 = <2 foci/200x", "value": 1},
      {"measurement": "Hepatocyte ballooning score 1, number of mice", "setting": "NASH mice; score 1 = Few balloon cells", "value": 2},
      {"measurement": "Lobular inflammation score 2, number of mice", "setting": "NASH mice; score 2 = 2-4 foci/200x", "value": 6},
      {"measurement": "Steatosis score 2, number of mice", "setting": "NASH mice; score 2 = >33-66%", "value": 2},
      {"measurement": "Hepatocyte ballooning score 2, number of mice", "setting": "NASH mice; score 2 = Many cells/prominent ballooning", "value": 4},
      {"measurement": "Inflammatory cell infiltration in the liver", "setting": "NASH mice; summary of lobular inflammation score and F4/80 immunostaining", "value": "reductions in inflammatory cell infiltration in the liver"}
    ]}
  ]
}
